Numbering of substitutions follows the chain as printed.
B1: IgG 1D8 (antibody, V domains shown)
VH: EVQLVESGGGLVQPGGSLKLSCAASGFTFNTYAMNWVRQAPGKGLEWVGRIRSKYNNYATYYADSVKDRFTISRDDSKNTAYLQMNSLKTEDTAVYYCVRHGNFGNSYVSWFAYWGQGTLVTVSS
VL: QTVVTQEPSLTVSPGGTVTLTCRSSTGAVTTSNYANWFQQKPGQAPRGLIGGTNKRAPGTPARFSGSLLGGKAALTLSGAQPEDEAEYYCALWYDGTWVFGGGTKLTVL
notes: also called L3sp34-G1-1-R2-P1_D8
B2: IgG 1A11 (antibody, V domains shown)
VH: B1 VH
VL: B1 VL with T97W
notes: also called L3sp34-G1-1-R2-P1_A11
B3: IgG 1A10 (antibody, V domains shown)
VH: B1 VH
VL: B1 VL with D95K, T97Y
notes: also called L3sp34-G1-2-R2-P1_A10
B4: IgG 1B6 (antibody, V domains shown)
VH: B1 VH
VL: B1 VL with D95A, G96N, T97R
notes: also called L3sp34-G1-1-R2-P1_B6
B5: IgG 1F8 (antibody, V domains shown)
VH: B1 VH
VL: B1 VL with T97K
notes: also called L3sp34-G1-2-R2-P1_F8
B6: IgG 1A4 (antibody, V domains shown)
VH: B1 VH
VL: B1 VL with D95K, G96Q, T97R
notes: also called L3sp34-G1-2-R2-P1_A4

Key:
[1] = target: T1, human CD3ε on T cells (Jurkat T cell line; CD4+ and CD8+ T cells from healthy human donors) (human, UniProt P07766 23-207); assay: FACS on CD4+ T cells from PBMCs of healthy donors, antibody at 0.1 µg/ml
T1 construct: whole, on cells
Experimental: (§1) Binding was also evaluated by FACS on different cell populations including T cell lines and natural cell populations derived from healthy blood donors. First, control and antiCD3ε candidates were tested at different concentration on the human T cell line Jurkat. […] Binding to native cell populations was performed by isolating PBMCs from healthy donors and evaluating binding to CD4+ and CD8+ T cells as well as B cells.

[2] = target: T1, human CD3ε on T cells (Jurkat T cell …); assay: FACS on CD8+ T cells from PBMCs of healthy donors, antibody at 0.1 µg/ml
Experimental: as §1

T1 sequence (P07766 23-207): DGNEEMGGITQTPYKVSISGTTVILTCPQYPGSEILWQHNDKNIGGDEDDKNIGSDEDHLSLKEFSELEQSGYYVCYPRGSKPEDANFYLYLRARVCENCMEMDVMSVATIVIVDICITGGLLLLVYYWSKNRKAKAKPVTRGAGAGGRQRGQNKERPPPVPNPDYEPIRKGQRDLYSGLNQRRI

| Binder | MFI on CD4+ T cells [1] [MFI] | MFI on CD8+ T cells [2] [MFI] |
| --- | --- | --- |
| B1 | 286 | 161 |
| B2 | 205 | 119 |
| B3 | 96 | 43 |
| B4 | 231 | 130 |
| B5 | 284 | 157 |
| B6 | 284 | 173 |

— patent US20190284297A1 (NOVIMMUNE, published 2019)
